{
  "source": "paper PMC6239174",
  "key": {"[1]": {"biological_target": "T1, Slbp2-MBP (Danio rerio (zebrafish), UniProt A1L2F4 1-326)", "experiment": "EMSA"}, "[2]": {"biological_target": "T1, Slbp2-MBP", "experiment": "competition EMSA"}},
  "data": [
    {"binder": "AAAAAGGUUCUUUUAAGAACCACCCAUUUUU (structured_RNA)", "note": "[h2a mRNA stem-loop (H2a SL) probe]", "values": [
      {"measurement": "binding result", "setting": "[1]", "value": "binds"}
    ]},
    {"binder": "AAAAAGGUUCUUUUAAGAACCACCCAUUUUU (structured_RNA)", "note": "[unlabeled H2a SL competitor]", "values": [
      {"measurement": "binding result", "setting": "[2]", "value": "binds"}
    ]}
  ]
}
